Positions count from the first letter of the chain named. Names and notes keep the numbering of the source. “Also recorded” adds a separate entry of the source.

For one experiment, the target named is ACVR1C-ECD. Kind of experiment: MST binding of ACVR1C-ECD-Fc to GREM1-His or ACTIVIN B-His. The note with it: Monolith NT.115, ACVR1C-ECD-Fc 0–27.5 µM vs 50 nM red-fluorescently labeled His-protein, PBS pH 7.4, premium capillaries, n = 3 independent experiments, mean ± s.e.m. More on the design: species or system human. From the text: Expi293F cells were transfected with a pcDNA3.4-ACVR1C-ECD-Fc and pcDNA3.4-ACVR1C-ECD-Fc-double mutant (E85A/T101A) expression vector to produce the target protein, which was subsequently purified using a Protein G column. Briefly, the coding sequence (CDS) of the human ACVR1C extracellular domain (ACVR1C-ECD, NM_145259.3, residues 1–113) fused to an Fc tag was cloned into the pcDNA3.4 vector. Expi293F cells were transfected with this construct, the supernatant was harvested 5 days post transfection.
MST was carried out on a Monolith NT.115 instrument (NanoTemper Technologies GmbH, MO-L011). To evaluate ACVR1C-ECD or ACVR1C peptide or ACVR1C-ECD-double mutant (E85A/T101A) binding to GREM1-His or ACTIVIN B-His, an increasing concentration of purified ACVR1C-ECD-Fc protein (0–27.5 µM) or ACVR1C peptide (0–2.3 µM) or ACVR1C-ECD-double mutant (0–27.5 µM) was incubated with 50 nM red-fluorescently labeled (NanoTemper Technologies GmbH, MO-L011) GREM1-His protein (R&D, 5190-GR) or ACTIVIN B-His protein (SinoBiological, 10814-H08H). Experiments were carried out in a PBS buffer pH 7.4 using premium capillaries (NanoTemper Technologies GmbH, MO-K025).

In the next experiment the target is FGFR1 (Homo sapiens) (UniProt P11362). The note with it: cited from earlier work.
Chain of FGFR1 (Homo sapiens) (P11362 22-376): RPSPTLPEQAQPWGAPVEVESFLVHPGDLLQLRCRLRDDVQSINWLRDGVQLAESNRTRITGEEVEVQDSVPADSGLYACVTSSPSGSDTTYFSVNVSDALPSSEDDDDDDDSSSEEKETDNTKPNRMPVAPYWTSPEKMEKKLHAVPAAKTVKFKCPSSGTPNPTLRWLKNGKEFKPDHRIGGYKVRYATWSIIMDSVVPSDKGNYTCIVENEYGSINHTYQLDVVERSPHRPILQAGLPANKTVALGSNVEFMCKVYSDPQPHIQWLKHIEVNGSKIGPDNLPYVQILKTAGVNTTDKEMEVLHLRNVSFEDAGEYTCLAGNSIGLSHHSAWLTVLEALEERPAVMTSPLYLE
Another experiment has as its system ACVR1C. Kind of experiment: Co-immunoprecipitation of GREM1 and ACVR1C. In kind it is binding, human. The note with it: co-IP, truncation or point mutants, HCT116 cells. The protocol: HCT116 cells were transfected with the indicated plasmids and lysed in NP40 lysis buffer (Beyotime, P0013F) supplemented with protease inhibitor cocktail (Thermo, 78446). Lysates were incubated with the indicated Anti-Flag nanobody magarose beads (Ktsm-life, KTSM1338), Anti-HA nanobody magarose beads (Ktsm-life, KTSM1335) or Anti-GFP nanobody magarose beads (Ktsm-life, KTSM1334) overnight at 4 °C. The protein complex was washed four times with the NP40 lysis buffer, eluted with 1×loading buffer (Beyotime, P0015) by boiling for 5 min, followed by mass spectrometry and immunoblotting with the indicated antibodies.
Protein was extracted from the cells with RIPA buffer (Beyotime, P0018) or NP40 lysis buffer (Beyotime, P0013F) and separated by SDS-PAGE, and transferred to polyvinylidene difluoride membranes. Primary antibodies against GREM1 (1:1,000, SinoBiological, 50016-R117), ACVR1C (1:1,000, Thermo, PA587475), Flag-tag (1:1,000, CST, 14793), HA-tag (1:1,000, CST, 3724), E-Cadherin (1:1,000, CST, 3195), β-Catenin (1:1,000, CST, 8480), ZEB1 (1:1,000, CST, 3396), Snail (1:1,000, CST, 3879), SMAD2/3 (1:1,000, CST, 8685), p-SMAD2/3 (1:1,000, CST, 8828), SMAD1 (1:1,000, CST, 6944), p-SMAD1/5/9 (1:1,000, CST, 13820), TGFβ (1:1,000, CST, 3709), TGFβR1 (0.3 µg/mL, R&D, AF3025), β-actin (1:5,000, Beyotime, AF0003) and GAPDH (1:5,000, Beyotime, AF0006) were used in this study. Peroxidase-conjugated secondary antibody (1:10,000, Cell Signaling Technology, 7074, 7076) was used and signal was visualized using an enhanced chemiluminescence assay (ECL, Thermo), according to the manufacturer’s protocol. Band intensity was quantified using Fiji (ImageJ) by grayscale analysis.

Experiment [1] concerns CRC cells (SW480, HCT116, and MC38). Kind of experiment: GREM1 withdrawal assay, RT–qPCR and immunoblot. It counts as cell-based, human (SW480, mouse (MC38). The note with it: rhGREM1 or rmGrem1 200 ng/mL 24 h, then GREM1-free medium 2 and 4 days. The protocol: To determine whether tumor cells that have acquired signaling autonomy can sustain GREM1 expression in the absence of external stimulation, we performed a GREM1 withdrawal assay. CRC cells (SW480, HCT116, and MC38) were first pulsed with rhGREM1 or recombinant mouse GREM1 (rmGrem1) for 24 h to initiate the signaling response. The medium containing rhGREM1 or rmGrem1 was then thoroughly removed, replaced with fresh GREM1-free medium, and the cells were cultured for an additional 4 days. […] This persistent, self-sustaining expression supports our conclusion that the initial rhGREM1 or rmGrem1 stimulation triggers a positive feedback loop of GREM1 transcription within CRC cells.
Protein was extracted from the cells with RIPA buffer (Beyotime, P0018) or NP40 lysis buffer (Beyotime, P0013F) and separated by SDS-PAGE, and transferred to polyvinylidene difluoride membranes. […] Band intensity was quantified using Fiji (ImageJ) by grayscale analysis.
Total RNA was extracted using Trizol reagent (Invitrogen, 15596026). […] The SYBR Green Premix Pro Taq HS qPCR Kit (Accurate Biology, AG11701) was then used to quantify mRNA expression according to the manufacturer’s instructions. All results were calculated using the 2^−ΔΔCt method. […]
For orientation: Quantitative PCR measures a nucleic acid by following its amplification.

Experiment [2] addresses T1, His-tagged full-length GREM1 (recombinant human GREM1-His) (human, UniProt O60565 25-184, red fluorescent label (NanoTemper, MO-L011) in the MST assays).
T1 construct: also called recombinant GREM1; rhGREM1; source: bought: R&D, 5190-GR
T1 sequence (looked up): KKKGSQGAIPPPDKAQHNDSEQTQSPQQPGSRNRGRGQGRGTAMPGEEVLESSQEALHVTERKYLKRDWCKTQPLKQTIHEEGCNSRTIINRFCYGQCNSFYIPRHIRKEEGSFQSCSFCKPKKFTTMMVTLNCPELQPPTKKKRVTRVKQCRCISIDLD
Kind of experiment: MST; Monolith NT.115; 50 nM red-fluorescently labelled GREM1-His or ACTIVIN B-His, unlabelled partner titrated (ACVR1C-ECD-Fc or double mutant 0–27.5 µM, ACVR1C peptide 0–2.3 µM); PBS pH 7.4; n = 3. The note with it: both partners purified.

The target in the next experiment is ACTIVIN B-His (UniProt P09529). The experiment is described as above.

Broadly, the Kd is a measure of binding affinity in units of concentration. As for “ACTIVIN B: a known ligand of ACVR1C; ACTIVIN B-His protein (SinoBiological, 10814-H08H)”, on ACVR1C-ECD, the Kd was 854 ± 127 nM.
For GREM1 (from UniProt O60565), the Kd in the experiment with FGFR1 (Homo sapiens) is 10.6 nM.

B1: Q101A/T102A/T112A/N115A quadruple mutation in GREM1: GREM1 point mutant (protein)
chain: T1 sequence (looked up) with Q77A, T78A, T88A, N91A
modifications: left off: HA, end not stated, state not stated | mCherry, end not stated, state not stated
notes: GREM1 point mutant
B1: the entries for the “effect of deletion or mutation on GREM1–ACVR1C interaction” value (from here on “effect of deletion or mutation”) in the experiment on ACVR1C and in the experiment on ACVR1C (listed as AA101/102/112/115 mutant (M3) of GREM1) were “significantly abrogated the GREM1–ACVR1C interaction” and “impaired”, respectively.

B2: rmGrem1: recombinant mouse GREM1 (protein, UniProt O70326 25-184, looked up)
Gremlin-1: T1 sequence (looked up) with Q27P, N33T
B2: the “endogenous GREM1 expression after withdrawal” value in experiment [1] is “not only maintained but in some cases further increased even after the withdrawal of exogenous GREM1; also recorded: maintained elevated endogenous GREM1 expression even after withdrawal of exogenous GREM1”.

B3: E85A: ACVR1C single mutant (protein, UniProt Q8NER5 21-493, looked up, variant E85A)
Activin receptor type-1C: ELSPGLKCVCLLCDSSNFTCQTEGACWASVMLTNGKEQVIKSCVSLPELNAQVFCHSSNNVTKTACCFTDFCNNITLHLPTASPNAPKLGPMELAIIITVPVCLLSIAAMLTVWACQGRQCSYRKKKRPNVEEPLSECNLVNAGKTLKDLIYDVTASGSGSGLPLLVQRTIARTIVLQEIVGKGRFGEVWHGRWCGEDVAVKIFSSRDERSWFREAEIYQTVMLRHENILGFIAADNKDNGTWTQLWLVSEYHEQGSLYDYLNRNIVTVAGMIKLALSIASGLAHLHMEIVGTQGKPAIAHRDIKSKNILVKKCETCAIADLGLAVKHDSILNTIDIPQNPKVGTKRYMAPEMLDDTMNVNIFESFKRADIYSVGLVYWEIARRCSVGGIVEEYQLPYYDMVPSDPSIEEMRKVVCDQKFRPSIPNQWQSCEALRVMGRIMRECWYANGAARLTALRIKKTISQLCVKEDCKA
As to B3, the entries for the “effect of deletion or mutation” value in the experiment with ACVR1C and in the experiment on ACVR1C (listed as AA85 mutant (M2)) were “significantly abrogated the GREM1–ACVR1C interaction” and “impaired”, respectively.

B4: T101A: ACVR1C single mutant (protein)
chain: B3 Activin receptor type-1C with A65E, T81A
modifications: left off: Flag, end not stated, state not stated | GFP, end not stated, state not stated
notes: ACVR1C single mutant
As to B4, the “effect of deletion or mutation” value is “significantly abrogated the GREM1–ACVR1C interaction” with ACVR1C and “impaired” in the experiment with ACVR1C (listed as AA101 mutant (M3) of ACVR1C).

B5: Fc-tagged ACVR1C extracellular domain (ACVR1C-ECD, AA1–113) (Fc fusion, human, UniProt Q8NER5-1 21-113, looked up)
chain: ELSPGLKCVCLLCDSSNFTCQTEGACWASVMLTNGKEQVIKSCVSLPELNAQVFCHSSNNVTKTECCFTDFCNNITLHLPTASPNAPKLGPME
notes: signal peptide in the construct; Vector pcDNA3.4; also called ACVR1C-ECD-Fc; recombinant human ACVR1C-ECD and Fc chimera protein; source: Expi293F, transfected, purified from supernatant (Protein G column, ion exchange)
B5: the dissociation constant Kd in experiment [2] came to 67.7 nM; in the experiment with ACTIVIN B-His, 854 nM.
For TECCFTDFCNNITLHLPTA (peptide, UniProt Q8NER5 84-102, looked up, ACVR1C, human, residues 84–102) [ACVR1C peptide (amino acid residues 84–102 of ACVR1C)], the Kd in experiment [2] turned out to be 92.3 nM.

The values are drawn from article PMC13371181, “A paracrine-to-autocrine shunt of GREM1 fuels colorectal cancer metastasis via ACVR1C” (Molecular Cancer, 2026).
